Assay results from patent publication US9803013B2, “Biological materials and uses thereof” (BioInvent International AB, priority 2005, dated 2017).
Read-outs that look alike come from different tables or passages of the source.

What was measured:
ICAM-2 = target: T1, ICAM-2 (Homo sapiens, UniProt P13598); assay: Binding to recombinant ICAM family protein
T1 sequence (P13598 25-275): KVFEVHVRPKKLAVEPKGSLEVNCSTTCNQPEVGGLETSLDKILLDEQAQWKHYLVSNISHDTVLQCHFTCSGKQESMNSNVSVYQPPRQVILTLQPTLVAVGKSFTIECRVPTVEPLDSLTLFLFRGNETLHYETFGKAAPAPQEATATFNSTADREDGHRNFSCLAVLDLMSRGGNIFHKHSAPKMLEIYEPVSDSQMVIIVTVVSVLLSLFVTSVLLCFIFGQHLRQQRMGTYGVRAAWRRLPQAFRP

[1] = system: panel of ICAM-1-expressing tumor cell lines; assay: CDC; format: cell-based; settings: human serum
Experimental: Target cells were harvested as described above (under ADCC heading) and incubated with antibodies at 5 μg/mL for 60 min on ice and then washed. Human serum, normal or heat-inactivated (Sigma, Sweden), was added to tubes and the samples were incubated for 2 hr at 37° C. After completion of incubation, ToPo-Pro-3 (Invitrogen) was added at a final concentration of 0.3 μM and cells were analyzed for membrane permeabilization using flow cytometry.

[2] = Limited safety studies in rat, rabbit and monkey; format: in vivo
[3] = system: endothelial cells (HUVEC, HMVEC); assay: HUVEC and HMVEC apoptosis assay; format: cell-based
Experimental: (FIG. 23G) Antibody-induced endothelial cell apoptosis. HUVEC or HMVEC endothelial cells were incubated with paclitaxel (positive control), BI-505 or isotype control IgG in the presence or absence of cross-linking mAb. Apoptosis was measured by flow-cytometry following staining of cells with Annexin V-AF488.
Based on BI-505's documented ability to confer Fc:FcγR-dependent antitumor activity in malignant B cells, and a proposed general negative role for complement activation with regard to antibody tolerability (Lim et al.; van der Kolk et al., 2001), direct cytotoxic effects (PCD, ADCC, and CDC) of BI-505 in ICAM-1-expressing human peripheral blood B cells and endothelial cells were examined.
HUVEC (Cascade Biologics, pool of donors) and HMVEC (Cascade Biologics) were plated in 6-well plates (80 000-120 000 cells/well) in the presence or absence of 200 U/mL IFNγ, in order to induce ICAM-1 expression. Media was changed the day before apoptosis-induction experiments were performed and titrated concentrations of BI-505, enlimomab or isotype control antibody were added to the cells, in the presence or absence of cross-linking Fab (ab′)2 (same as the B-cell protocol). […] Necrotic cells were identified by increased fluorescence in the FL-4 channel and apoptotic cells by increased signal in the FL-1 channel on a flow cytometer (FACSCalibur, BD Bioscience).

[4] = system: Daudi B cell lymphoma xenografts; assay: SCID/Daudi B cell lymphoma subcutaneous xenograft model; settings: one day following tumor cell injection or established tumors
DU145 cells = assay: Apoptosis induction in carcinoma cells (cross-linked IgG, 16-24 hours, Annexin V/PI); format: cell-based, human
Experimental: (§1) The prostate carcinoma cell line PC-3 was grown in Complete Growth Medium (RPMI 1640, supplemented with 10% FCS, 10 mM HEPES, and 2 mM L-Glutamine) to 80% confluency in a 6 well plate. The prostate carcinoma cell line DU145 was grown in MEM with Earl's salts, supplemented with 10% FCS, 1 mM sodium pyruvate, and 1 mM non-essential amino acids and the derivate of a melanoma cell line MDA MB 435 was grown in DMEM supplemented with 10% FCS.
(§2) For apoptosis assays cells were washed in PBS and serially diluted B11 IgG1 (or B1 IgG1, Trastuzumab or negative antibody control for controls) was added to individual wells and binding was allowed during a 1-2 h incubation at 4° C. The cells were washed and Complete Growth Medium was added, containing cross-linking antibody, Fab′2 Goat anti-Human Fab′2, at 10 μg/ml. Cells were incubated in a humidified atmosphere, with 5% CO2 at 37° C., for 16-24 hours. Cells were collected by trypsination and stained with Alexa Fluor 488-Annexin V (AF488-AV) and propidium iodide (PI), according to manufacturer's instructions. The percentage apoptotic cells was determined by the formula: % apoptotic cells=100−% AF488−AV/PI−/−.
(§3) Cells were seeded in 6 well plates with Complete Growth Medium three days before the onset of the experiment.

MDA MB 435 cells = assay: as above; format: cell-based, human; settings: MDA MB 435, cross-linked IgG
Experimental: as §1, §2, §3

mouse FcγRIV = target: T2, mouse FcγRIV (Mus musculus, UniProt A0A0B4J1G0); assay: BiaCore analysis of BI-505 Fc-variant binding to FcγR
T2 construct: made in house; host or cells: HEK293E cells (transient)
T2 sequence (A0A0B4J1G0 21-249): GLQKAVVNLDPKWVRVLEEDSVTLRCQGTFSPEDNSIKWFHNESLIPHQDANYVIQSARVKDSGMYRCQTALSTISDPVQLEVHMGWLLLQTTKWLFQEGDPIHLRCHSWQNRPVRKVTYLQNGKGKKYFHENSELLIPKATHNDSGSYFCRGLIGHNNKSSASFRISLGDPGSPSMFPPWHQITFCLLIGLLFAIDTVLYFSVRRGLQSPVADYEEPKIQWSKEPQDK
Experimental: (FIG. 20B) BiaCore analysis of BI-505 Fc-variant antibodies binding to mouse FcγRIV.
His-tagged human FcγRIIIa and mouse FcγRIV were transiently expressed in HEK293E cells, purified using Ni-NTA chromatography, and characterized by SDS-PAGE and/or Biacore. Surface plasmon resonance (SPR) measurements were performed using a Biacore 3000 instrument. Goat F(ab)′2 α-human-F(ab)′2 fragments (Jackson Laboratories) were immobilized with a CM-5 chip using a standard amine coupling protocol. BI-505 (IgG1) and IgG4 or IgG1 297Q variants of BI-505 were diluted to 15 and 60 μg/mL respectively and added to the surface at 10 μL/min for 3 min. His-tagged human FcγRIIIa or mouse FcγRIV was pre-incubated with an α-HIS antibody (R&D Systems) at a 2:1 molar ratio before addition to the chip surface, 30 μL/min, for 1 min. After each cycle the surface was regenerated twice with glycine buffer pH 1.7.

ARH-77 tumors = assay: SCID/ARH-77 subcutaneous xenograft model
Experimental: For subcutaneous grafting, 1-5×10^6 tumor cells (RPMI-8226, NCI-H929, EJM, OPM-2, ARH-77, or Daudi) were subcutaneously injected at a volume of 100 μl into the left flank of anesthetized mice as described in the Supplemental Information. […] Treatment with saline, isotype control IgG, bortezomib, lenalidomide, dexamethasone, or BI-505 started on day 5 (RPMI-8226). Treatment with melphalan started on day 10. BI-505 or isotype IgG mAb was administered i.v. at 2 mg/kg/inj twice weekly for 8 weeks; bortezomib at 1 mg/kg/inj once weekly for 8 weeks; lenalidomide orally at 2 mg/kg/inj for 2 cycles consisting of 5 days of treatment and 2 days of wash out; melphalan i.v. at 3 mg/kg/inj once weekly for 8 weeks; and dexamethasone at 6 mg/kg/inj three times weekly for 2 weeks.
Mice were anaesthetized with a mixture of sevofluran and oxygen prior to myeloma cell inoculation and 1-10×10^6 myeloma cells were then subcutaneously injected in a volume of 100 μl into the left flank. Treatment with antibodies by intraperitoneal injection started either 1 day after cell inoculation (prophylactic model) or when tumors reached approximately 100 mm^3 (established model). Antibodies were administered in 200 μL of PBS. Treatment with PBS only or isotype IgG were used as controls. Macrophages or NK-cells were depleted by i.p. administration of 0.1 ml clodronate liposomes (Clophosome-A, FormuMax, Scientific Inc. Palo Alto, USA) or 20 μl anti-asialo GM1 pCI Ab (CL8955, Cedarlane Laboratories Limited, Canada) respectively, starting one day prior to antibody treatment, followed by administration twice weekly for a total of three weeks, PBS was used as control.
Tumor size was measured using a digital calliper and tumor volumes were calculated according to the formula width^2×length×0.52, as previously described (Cao et al., 1999).
Statistical analyses of tumor growth inhibition relative to control antibody treatment were carried out using Kruskal-Wallis nonparametric ANOVA with Dunn's multiple comparisons test or Mann-Whitney non-parametric analysis, as indicated in the figure legends.

[5] = mouse
Experimental: Blood samples collected from the vena cava were centrifuged at 2500 g for 15 min to obtain serum and the samples were stored at −20° C.
Sera were prepared from blood samples collected from the vena saphena from 3 animals in each group at different time-points during the course of in vivo experimentation. Briefly, ELISA plates were coated over night with human ICAM-1 protein. The following day, plates were incubated with the serum samples. Biotinylated goat-anti-BI-505 was used for detection of BI-505 in the serum samples. Sera were analysed by ELISA to determine BI-505 trough levels. Trough BI-505 serum concentrations were then plotted as a function of dose and were fitted using five parameter log-log curve and XLfit software (IDBS, Guildford, United Kingdom).

[6] = tumors established for 12 days before start of antibody treatment

B1: B11: fully human IgG1 antibody specific for ICAM-1; VH and VL sequences of FIG. 10 (SEQ ID NOs. 6 and 8) (antibody, listed as Homo sapiens, V domains shown)
VH: EVQLLESGGGLVQPGGSLRLSCAASGFTFSNAWMSWVRQAPGKGLEWVAFIWYDGSNKYYADSVKGRFTISRDNSKNTLYLQMNSLRAEDTAVYYCARYSGWYFDYWGQGTLVTVSS
VL: QSVLTQPPSASGTPGQRVTISCTGSSSNIGAGYDVHWYQQLPGTAPKLLIYDNNNRPSGVPDRFSGSKSGTSASLAISGLRSEDEADYYCQSYDSSLSAWLFGGGTKLTVLG
ICAM-2
  binding to recombinant protein: not to ICAM-2 or ICAM-3
[1]
  CDC: did not induce CDC
[2]
  toxicity: no compound-related off-target toxicity
[3]
  cell death in normal cells: did not induce cell death
[4]
  survival: prolonged survival
  tumor growth: significantly prevented tumor growth
DU145 cells
  Apoptosis Induction: induce apoptosis
MDA MB 435 cells
  Apoptosis Induction: induce apoptosis
Mouse FcγRIV
  binding to mouse FcγRIV, order: IgG1 N297Q<IgG4<IgG1
ARH-77 tumors; dose-titration, dose of 0.2 mg/kg
  antitumor activity: near maximal
ARH-77 tumors; established ARH-77 tumors
  in vivo antitumor activity of Fc-variants, order: IgG1 N297Q<IgG4<IgG1
ARH-77 tumors; established ARH-77 tumors, F4/80+ immunohistochemistry
  tumor macrophage infiltration: significantly increased tumor macrophage infiltration
ARH-77 tumors; established ARH-77 tumors, immunohistochemistry
  tumor NK cell content: decreased tumor NK cell content
ARH-77 tumors; prophylactic, 0.2 mg/kg, compared to 20 mg/kg rituximab
  survival: equally efficacious
ARH-77 tumors; prophylactic, 20 mg/kg twice-weekly from 1 day after tumor cell inoculation
  injected mice in which tumor growth was prevented: 9 out of 10
ARH-77 tumors; [6]
  animal survival: prolonged animal survival
  tumor growth: significantly reduced tumor growth
[5]; 0.02 mg/kg
  In vivo serum concentrations: 0.06 ± 0.02 µg/mL
[5]; 0.2 mg/kg
  In vivo serum concentrations: 1.2 ± 0.4 µg/mL
[5]; 2 mg/kg
  In vivo serum concentrations: 20 ± 2.9 µg/mL
